Biological target: human PRDX4 present on the cell surface of cancer cells (human) (UniProt Q13162)
Assay: flow cytometry on ES-2 cells, control staining

Sequence of UniProt Q13162 (Q13162 38-271 limits assumed): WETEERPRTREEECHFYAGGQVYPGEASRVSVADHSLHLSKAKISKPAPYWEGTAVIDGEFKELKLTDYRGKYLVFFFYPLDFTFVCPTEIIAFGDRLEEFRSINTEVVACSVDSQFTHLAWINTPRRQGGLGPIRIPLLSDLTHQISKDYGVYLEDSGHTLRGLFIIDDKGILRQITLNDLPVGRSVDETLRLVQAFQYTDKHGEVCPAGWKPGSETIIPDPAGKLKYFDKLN

## isotype antibody
  mean (flow cytometry): 159
